This data set relates to IDH22.

Chain of ATR (chain, as listed by the source): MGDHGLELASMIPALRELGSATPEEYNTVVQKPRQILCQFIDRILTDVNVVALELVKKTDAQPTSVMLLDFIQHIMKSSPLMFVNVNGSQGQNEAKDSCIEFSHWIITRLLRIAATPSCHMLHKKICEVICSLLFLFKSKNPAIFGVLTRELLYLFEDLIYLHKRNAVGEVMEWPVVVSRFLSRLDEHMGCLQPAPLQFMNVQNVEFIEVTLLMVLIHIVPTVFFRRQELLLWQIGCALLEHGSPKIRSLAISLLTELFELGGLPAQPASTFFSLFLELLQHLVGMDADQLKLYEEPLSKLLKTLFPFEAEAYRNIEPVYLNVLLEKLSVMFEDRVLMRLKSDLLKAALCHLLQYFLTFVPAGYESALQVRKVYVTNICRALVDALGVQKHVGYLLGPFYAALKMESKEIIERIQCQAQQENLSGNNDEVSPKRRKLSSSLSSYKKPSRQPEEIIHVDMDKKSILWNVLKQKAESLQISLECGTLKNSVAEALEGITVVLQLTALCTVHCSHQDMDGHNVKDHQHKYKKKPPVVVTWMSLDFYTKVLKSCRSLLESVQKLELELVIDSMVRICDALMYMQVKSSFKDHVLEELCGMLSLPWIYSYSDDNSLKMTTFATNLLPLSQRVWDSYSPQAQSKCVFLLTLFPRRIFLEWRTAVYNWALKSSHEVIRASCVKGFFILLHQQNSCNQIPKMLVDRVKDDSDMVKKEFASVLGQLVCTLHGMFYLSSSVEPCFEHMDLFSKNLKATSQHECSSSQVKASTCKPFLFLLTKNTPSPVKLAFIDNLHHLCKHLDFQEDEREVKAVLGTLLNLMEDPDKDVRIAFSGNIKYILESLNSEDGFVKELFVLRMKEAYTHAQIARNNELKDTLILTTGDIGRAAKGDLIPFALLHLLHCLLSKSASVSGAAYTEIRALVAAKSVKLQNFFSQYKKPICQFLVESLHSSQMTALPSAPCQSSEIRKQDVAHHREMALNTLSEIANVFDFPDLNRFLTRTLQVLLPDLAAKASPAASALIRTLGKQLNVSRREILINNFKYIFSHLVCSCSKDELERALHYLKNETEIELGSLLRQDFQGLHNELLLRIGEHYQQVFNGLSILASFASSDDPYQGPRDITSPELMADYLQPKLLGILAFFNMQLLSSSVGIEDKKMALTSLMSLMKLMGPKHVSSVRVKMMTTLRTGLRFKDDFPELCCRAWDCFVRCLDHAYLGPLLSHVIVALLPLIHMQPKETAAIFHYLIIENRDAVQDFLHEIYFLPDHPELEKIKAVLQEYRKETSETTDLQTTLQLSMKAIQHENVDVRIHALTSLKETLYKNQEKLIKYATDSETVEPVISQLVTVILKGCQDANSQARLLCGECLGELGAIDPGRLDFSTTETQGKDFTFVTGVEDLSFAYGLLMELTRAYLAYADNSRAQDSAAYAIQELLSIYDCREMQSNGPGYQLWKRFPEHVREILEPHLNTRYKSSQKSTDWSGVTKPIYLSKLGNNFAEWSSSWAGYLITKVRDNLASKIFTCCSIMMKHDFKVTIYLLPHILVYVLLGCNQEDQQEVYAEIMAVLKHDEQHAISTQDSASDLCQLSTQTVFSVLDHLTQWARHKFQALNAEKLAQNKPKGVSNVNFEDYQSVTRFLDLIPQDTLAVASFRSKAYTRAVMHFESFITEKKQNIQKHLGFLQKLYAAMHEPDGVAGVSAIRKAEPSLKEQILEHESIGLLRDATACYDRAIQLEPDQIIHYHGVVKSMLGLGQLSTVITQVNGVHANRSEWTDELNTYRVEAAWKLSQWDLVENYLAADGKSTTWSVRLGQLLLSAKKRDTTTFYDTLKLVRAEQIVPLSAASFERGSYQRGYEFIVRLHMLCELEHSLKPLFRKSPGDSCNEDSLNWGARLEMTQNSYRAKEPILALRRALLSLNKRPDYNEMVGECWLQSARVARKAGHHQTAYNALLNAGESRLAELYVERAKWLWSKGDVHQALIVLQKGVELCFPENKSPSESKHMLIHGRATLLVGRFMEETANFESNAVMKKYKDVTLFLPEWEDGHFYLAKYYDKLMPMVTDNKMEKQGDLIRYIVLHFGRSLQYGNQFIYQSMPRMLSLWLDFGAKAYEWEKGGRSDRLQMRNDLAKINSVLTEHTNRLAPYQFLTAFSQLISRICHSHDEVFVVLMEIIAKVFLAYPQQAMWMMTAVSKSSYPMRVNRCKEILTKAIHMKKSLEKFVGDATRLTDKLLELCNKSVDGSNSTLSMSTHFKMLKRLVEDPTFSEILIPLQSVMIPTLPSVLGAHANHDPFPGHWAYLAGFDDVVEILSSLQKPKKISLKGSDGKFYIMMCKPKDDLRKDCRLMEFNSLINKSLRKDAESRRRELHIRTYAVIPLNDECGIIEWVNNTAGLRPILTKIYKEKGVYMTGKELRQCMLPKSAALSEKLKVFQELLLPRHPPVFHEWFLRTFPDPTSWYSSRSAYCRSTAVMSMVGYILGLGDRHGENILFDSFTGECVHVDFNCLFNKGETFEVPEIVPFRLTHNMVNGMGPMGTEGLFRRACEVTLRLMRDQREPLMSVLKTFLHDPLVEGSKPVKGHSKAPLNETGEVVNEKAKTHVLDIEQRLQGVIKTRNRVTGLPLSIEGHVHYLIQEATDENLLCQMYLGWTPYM

As for ATR, the “phosphorylation of peptide substrate (32P kinase assay, plate-captured ATR)” value is “ATR phosphorylated IDH22”.
